Test results published in patent US20180371066A1 (C2N DIAGNOSTICS, published 2018).

Tests used:
[1] = molecular target: T1, human tau (human, UniProt P10636 2-60); experiment: competition ELISA on plate-coated human tau against biotinylated HJ8.5; IC50 normalised to chimeric HJ8.5; column External
T1 construct: also called soluble human tau; human tau protein

[2] = molecular target: T2, first 32 amino acids of human tau, expressed on yeast (human, UniProt P10636 1-32); experiment: yeast display, immunofluorescence
T2 construct: range 1-32; Yeast display scaffold not described
T2 chain (looked up): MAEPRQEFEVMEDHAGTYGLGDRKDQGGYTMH
Protocol: The epitope was mapped using yeast display. For this method, various peptides covering the sequence of human tau were expressed using by yeast. Binding of the HJ8.5 antibody to yeast in culture was measured by immunofluorescence. Binding to yeast, expressing variants of tau that included the first 34 amino acids was observed, but no binding, if the yeast only expressed the first 32 amino acids of tau.

[3] = molecular target: T3, PEP_2875811; experiment: peptide array of 15-mers of human tau probed with the antibody; label LIN.AA (double alanine)
T3 peptide: YGLGDRKDQAAYTMH

[4] = molecular target: T4, PEP_2875821; experiment: as above
T4 peptide: RKDQGGYTMAADQEG

[5] = molecular target: T5, PEP_2875809; experiment: as above
T5 peptide: TYGLGDRKDAAGYTM

[6] = molecular target: T6, PEP_2875823; experiment: as above
T6 peptide: KDQGGYTMHAAQEGD

[7] = molecular target: T7, PEP_2875819; experiment: as above
T7 peptide: DRKDQGGYTAAQDQE

[8] = molecular target: T8, PEP_2875827; experiment: as above
T8 peptide: QGGYTMHQDAAGDTD

[9] = molecular target: T9, PEP_2875817; experiment: as above
T9 peptide: GDRKDQGGYAAHQDQ

[10] = molecular target: T10, PEP_2875825; experiment: as above
T10 peptide: DQGGYTMHQAAEGDT

[11] = molecular target: T1, human tau; experiment: competition ELISA on plate-coated human tau against biotinylated HJ8.5; IC50 normalised to chimeric HJ8.5; column C2N Run 1
[12] = molecular target: T11, rhesus monkey tau (rhesus monkey, UniProt P57786 2-60); experiment: direct ELISA on 96-well plates coated with tau at varied concentration; OD 650nm
T11 construct: also called rhesus tau
T11 sequence: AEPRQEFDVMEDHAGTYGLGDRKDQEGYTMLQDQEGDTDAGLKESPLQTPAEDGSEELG
Protocol: FIG. 10 illustrates the binding results for different anti human tau antibodies to either human or rhesus monkey tau. Murine anti human tau antibodies HJ8.5 and HJ8.7 alongside humanized variant VH1/VK2 (also referred to as C₂N-8E12) were tested. […] In order to determine whether these amino acid difference between the two species of tau, impacts the ability of antibodies HJ8.5/C₂N-8E12 to bind the following experiment was performed. Binding of C₂N-8E12, HJ8.5 (murine precursor of C₂N-8E12), and HJ8.7 (murine anti-human tau antibody that binds to an epitope of tau where the human and rhesus amino acid sequence is 100% conserved) to human and rhesus tau by coating 96 well ELISA plates with either human or rhesus tau at various concentrations was measured. […] As expected, HJ8.7 binds to both human and rhesus tau.

[13] = molecular target: T1, human tau; experiment: competition ELISA on plate-coated human tau against biotinylated HJ8.5; IC50 normalised to chimeric HJ8.5; column C2N Run 2
[14] = molecular target: T12, PEP_2875816; experiment: peptide array of 15-mers of human tau probed with the antibody; label LIN
T12 peptide: GDRKDQGGYTMHQDQ

[15] = molecular target: T13, PEP_2875812; experiment: as above
T13 peptide: GLGDRKDQGGYTMHQ

[16] = molecular target: T14, PEP_2875808; experiment: as above
T14 peptide: TYGLGDRKDQGGYTM

[17] = molecular target: T15, PEP_2875826; experiment: as above
T15 peptide: QGGYTMHQDQEGDTD

[18] = molecular target: T16, PEP_2875806; experiment: as above
T16 peptide: GTYGLGDRKDQGGYT

[19] = molecular target: T17, PEP_2875818; experiment: as above
T17 peptide: DRKDQGGYTMHQDQE

[20] = molecular target: T18, PEP_2875804; experiment: as above
T18 peptide: AGTYGLGDRKDQGGY

[21] = molecular target: T19, PEP_2875810; experiment: as above
T19 peptide: YGLGDRKDQGGYTMH

[22] = molecular target: T20, PEP_2875824; experiment: as above
T20 peptide: DQGGYTMHQDQEGDT

[23] = molecular target: T21, PEP_2875820; experiment: as above
T21 peptide: RKDQGGYTMHQDQEG

[24] = molecular target: T22, PEP_2875814; experiment: as above
T22 peptide: LGDRKDQGGYTMHQD

[25] = molecular target: T23, PEP_2875822; experiment: as above
T23 peptide: KDQGGYTMHQDQEGD

T1 sequence (P10636 2-60 limits assumed): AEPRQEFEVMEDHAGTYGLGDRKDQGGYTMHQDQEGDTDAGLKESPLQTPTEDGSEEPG

B1: murine anti-tau antibody HJ8.5 (antibody, V domains shown)
VH: EVKVEESGGGLVQPGGSMKLSCVVSGFTFSNYWVNWVRQSPEKGLEWVAQIRLKSDNYATHYEESVKGRFTISRDDSKSSVYLQMNNLRAEDSGIYYCTNWEDYWGQGTTLTVSS
VL: DIVLTQSPASLAVSLGQRATISCRASQSVSTSRYSYIHWYQQKPGQPPKLLIKYASNLESGVPARFSGSGSGTDFTLNIHPLEEEDAATYYCHHSWEIPLTFGAGTKLELK
notes: Murine monoclonal antibody; also called parent antibody; murine parent
Q: Which “IC50 (Relative to Chimera)” value [1] does the source give for B1 here?
A: 1.07 relative to Chimera

Q: Does B1 bind [2]?
A: no binding

Q: And the “Binding Signal” value [3]?
A: 1780

Q: And the “Binding Signal” value [4]?
A: 2710

Q: And the “Binding Signal” value [5]?
A: 2810

Q: And the “Binding Signal” value [6]?
A: 2710

Q: And the “Binding Signal” value [7]?
A: 2700

Q: What about the “Binding Signal” value [8] of the same binder?
A: 427

Q: And the “Binding Signal” value [9]?
A: 2640

Q: What about the “Binding Signal” value [10] of the same binder?
A: 2710

Q: What about the “IC50 (Relative to Chimera)” value [11] of the same binder?
A: 0.79 relative to Chimera

Q: Does B1 bind [12]?
A: no binding

Q: What about the “IC50 (Relative to Chimera)” value [13] of the same binder?
A: 0.99 relative to Chimera

Q: What about the “Binding Signal” value [14] of the same binder?
A: 2650

Q: And the “Binding Signal” value [15]?
A: 2820

Q: And the “Binding Signal” value [16]?
A: 2640

Q: What about the “Binding Signal” value [17] of the same binder?
A: 399

Q: What about the “Binding Signal” value [18] of the same binder?
A: 2640

Q: And the “Binding Signal” value [19]?
A: 2690

Q: And the “Binding Signal” value [20]?
A: 427

Q: What about the “Binding Signal” value [21] of the same binder?
A: 2840

Q: And the “Binding Signal” value [22]?
A: 2680

Q: What about the “Binding Signal” value [23] of the same binder?
A: 2700

Q: And the “Binding Signal” value [24]?
A: 2840

Q: What about the “Binding Signal” value [25] of the same binder?
A: 2700
